The series “SEC-MALS” concerns the molecule itself. As to the kind of experiment: SEC-MALS. (SEC sorts molecules by how far they enter the pores of the column.)
The series “SEC” deals with the molecule itself. As to the kind of experiment: SEC.
The series “crystal structure” deals with the molecule itself. As to the kind of experiment: crystal structure.

B1: mouse lipin 1 M-Lip^xtal domain (as used for SEC-MALS) (domain or fragment, UniProt Q91ZP3-2 458-548, looked up)
chain: SLRDLPSIAISLCGGLSDHREITKDAFLEQAVSYQQFADNPAIIDDPNLVVKVGNKYYNWTTAAPLLLAMQAFQKPLPKATVESIMRDKMP
For orientation: stoichiometry N means a count of units in the complex or per binding partner. On to B1, for which, in “SEC-MALS”, the “stoichiometry N” value was found to be 2.

B2: full-length mouse lipin 1α (purified from Sf9 cells) (enzyme, UniProt Q91ZP3-2 1-891, looked up)
chain: MNYVGQLAGQVFVTVKELYKGLNPATLSGCIDIIVIRQPNGSLQCSPFHVRFGKMGVLRSREKVVDIEINGESVDLHMKLGDNGEAFFVQETDNDQEIIPMYLATSPILSEGAARMESQLKRNSVDRIRCLDPTTAAQGLPPSDTPSTGSLGKKRRKRRRKAQLDNLKRDDNVNSSEDEDMFPIEMSSDEDTAPMDGSRTLPNDVPPFQDDIPKENFPSISTHPQSASYPSSDREWSPSPSPSGSRPSTPKSDSELVSKSADRLTPKNNLEMLWLWGELPQAAKSSSPHKMKESSPLGSRKTPDKMNFQAIHSESSDTFSDQSPTMARGLLIHQSKAQTEMQFVNEEDLESLGAAAPPSPVAEELKAPYPNTAQSSSKTDSPSRKKDKRSRHLGADGVYLDDLTDMDPEVAALYFPKNGDPGGLPKQASDNGARSANQSPQSVGGSGIDSGVESTSDSLRDLPSIAISLCGGLSDHREITKDAFLEQAVSYQQFADNPAIIDDPNLVVKVGNKYYNWTTAAPLLLAMQAFQKPLPKATVESIMRDKMPKKGGRWWFSWRGRNATIKEESKPEQCLTGKGHNTGEQPAQLGLATRIKHESSSSDEEHAAAKPSGSSHLSLLSNVSYKKTLRLTSEQLKSLKLKNGPNDVVFSVTTQYQGTCRCEGTIYLWNWDDKVIISDIDGTITRSDTLGHILPTLGKDWTHQGIAKLYHKVSQNGYKFLYCSARAIGMADMTRGYLHWVNERGTVLPQGPLLLSPSSLFSALHREVIEKKPEKFKVQCLTDIKNLFFPNTEPFYAAFGNRPADVYSYKQVGVSLNRIFTVNPKGELVQEHAKTNISSYVRLCEVVDHVFPLLKRSHSCDFPCSDTFSNFTFWREPLPPFENQDMHSASA
B2: the binding result in “SEC” is listed as “binds”.

B3: mouse lipin 2 M-Lip^xtal domain (domain or fragment, UniProt Q99PI5 459-549, looked up)
chain: SAMDLPDVTLSLCGGLSENGEISKEKFMEHIITYHEFAENPGLIDNPNLVIRIYNRYYNWALAAPMILSLQVFQKSLPKATVESWVKDKMP
Consider B3, for which the binding result in the series “crystal structure” is recorded as “binds”.

The values are drawn from article doi:10.1101/2021.03.19.436211 (bioRxiv, 2021).
